Results published in patent US20090208447A1.

B1: soluble high affinity c50 ILT-like polypeptide monomer, Q8NHL6 25-221 (receptor)
chain: MHLPKPTLWAEPGSVITMDQPVTLRCQGGQETQEYRLYREKKTAPWITRIPQELVKKGQFPIPSITWEHAGRYRCYYGSDTSQWSASSDPLELVVTGVYIKPTLSAQPSPVVNSGGNVTLQCDSQVAFDGFILCKEGEDEHPQCLNSQPHARGSSRAIFSVGPVSPSRRWWYRCYAYDSNSPYEWSLPSDLLELDVDG
B2: soluble high affinity c50 ILT-like polypeptide dimer, Q8NHL6 25-217 (receptor)
chain: MHLPKPTLWAEPGSVITMDQPVTLRCQGGQETQEYRLYREKKTAPWITRIPQELVKKGQFPIPSITWEHAGRYRCYYGSDTSQWSASSDPLELVVTGVYIKPTLSAQPSPVVNSGGNVTLQCDSQVAFDGFILCKEGEDEHPQCLNSQPHARGSSRAIFSVGPVSPSRRWWYRCYAYDSNSPYEWSLPSDLLELDVDGC
modifications: here or on the partner: additional C-terminal cysteine linked through maleimide to MAL-PEG-MAL, MW 3.4 KD
B3: soluble high affinity c50 ILT-like polypeptide tetramer, Q8NHL6 25-217 (receptor)
chain: B2 chain
modifications: here or on the partner: additional C-terminal cysteine linked through maleimide to 4arm MAL-PEG, MW 20 KD

biological target: Class I MHC; assay: cell-based or functional assay

Binder | IC50 for the inhibition of CTLs (IFN-gamma ELISPOT, MART-1 specific T cell clone KA/C5 with Mel 624 / Mel 526 target cells) [nM]
B1 | 800
B2 | 16.2
B3 | 0.7
